Test results published in PMC10504348.
“And” between values parts separate entries of the source, which are not always exact repeats. Identical values can stand only once.

Columns and labels:
[1] = biological target: C-terminally truncated HRSV nucleoprotein N1-370 (strain Long), as N-RNA assemblies (Human respiratory syncytial virus (strain Long)) (UniProt P03418); test: cryo-EM structure; purified N-RNA assemblies in TEN buffer (50 mM Tris-HCl, 10 mM EDTA, 150 mM NaCl, pH 7.4), plunge-frozen on holey carbon grids; Glacios microscope, K2 detector; assemblies classified and reconstructed separately
[2] = biological target: Human respiratory syncytial virus nucleoprotein N, full-length wild type (strain Long), as N-RNA assemblies (Human respiratory syncytial virus (strain Long)) (UniProt P03418); test: as above

Substance	stoichiometry N [1]	stoichiometry N [2]
C-terminally truncated HRSV nucleoprotein N1-370 (strain Long), as N-RNA assemblies (from UniProt P03418 1-370) (domain or fragment)	10	–
Human respiratory syncytial virus nucleoprotein N, full-length wild type (strain Long), as N-RNA assemblies (from UniProt P03418 1-391) (natural protein)	–	10 and 11
